In the supplement of paper PMC12042874:
± gives the uncertainty stated by the source.

assay: amyloid nucleation score (Sup35N fusion, yeast selection) (log enrichment); library NNK1; higher = more nucleation; inactive = no reads after selection
In short: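 The nucleation score equals the log enrichment of output over input reads from DiMSum, centred on the mode score of non-aggregating sequences. It was computed only for sequences with 100 or more input reads. The reads came from Illumina sequencing of plasmid inserts from psi-negative yeast expressing Sup35N fused to peptides of 20 random codons, induced with 100 μM copper sulfate for 24 hours and grown 7 days at 30°C without adenine and uracil.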

Row | Substance | amyloid nucleation score
1 | WSRCSFFGHRYIKSSLLIWG | -0.139 ± 0.44
2 | WSSKLFCIGLDLCVVDDMCF | 2.44 ± 0.12
3 | WSSTRPCFLFQLRMAMLLCS | 0.154 ± 0.59
4 | WSYAIKAISSMGAVTDASRM | -0.136 ± 0.31
5 | WTAGWL | -0.065 ± 0.44
6 | WTRLLD | inactive
7 | WTRSM | 0.018 ± 0.41
8 | WVDGESAPDDERRQWICDIG | -0.948 ± 1.3
9 | WVGFRQCLSASMCAPDPQTD | 0.748 ± 0.8
10 | WVILMMLCILRGRELSVAYW | -0.446 ± 0.99
11 | WVLAVRTSNLCRRGMLYKL | -0.662 ± 0.45
12 | WVLGGEFPYKRGGIAASLVL | -0.327 ± 0.84
13 | WVNVTRVNGRDEGAPSIRNK | -0.787 ± 0.4
14 | WVSSAAGAAGPVIYWDVALY | -0.612 ± 0.39
15 | WWLRVVS | 0.041 ± 0.78
16 | WWSYQF | 0.725 ± 0.39
17 | WYHSYCVVHSFWYATSPLNS | -0.259 ± 0.33
18 | WYPAANLRLVALIKGVSAVT | -2.23 ± 2.4
19 | YADNSSTLMSDILFTIYRIG | 1.06 ± 0.095
20 | YAFARCLTHINVVALIVRMC | -1.18 ± 0.64
21 | YAHGGWDLVRRNS | 0.232 ± 0.86
22 | YALFADACSKGALDKVFSWV | 0.745 ± 1.2
23 | YANTTWSLTLTTVQHRNVAD | 3.35 ± 0.16
24 | YARIAKRTFLVYSQNEARFE | 0.843 ± 0.98
25 | YASTSMWVP | -0.401 ± 0.35

Row | Substance | amyloid nucleation score
26 | YATGDCDVLMYRLGMNKKSS | 0.488 ± 0.45
27 | YAVCRLANSSGSRHVFLCHT | 0.527 ± 0.31
28 | YCCYAVRACFN | 7.509 ± 0.057
29 | YCGGY | 2.9 ± 0.087
30 | YCGSYHLGSFGIYSTVEIYC | 1.37 ± 0.9
31 | YCNGNRKVVEVDFDWILGGG | -0.33 ± 1.1
32 | YDEGHS | -0.778 ± 1.2
33 | YDFLPRVNNPLSRNLRHRAL | -0.071 ± 0.56
34 | YDIRL | -0.376 ± 0.65
35 | YDNRSALDWCLGEVMFAST | -0.993 ± 0.35
36 | YDRVLNLSDSWCTNAAPWWG | 0.394 ± 0.43
37 | YDYGVESLRLVVLCNDLWFL | -0.346 ± 0.4
38 | YDYHRNLSNHFLCFTLNWLT | 5.23 ± 0.072
39 | YEDLSNDYNSNRWIVYALSK | -0.189 ± 0.24
40 | YEFLIWVCPTALRRVVSSVV | 0.189 ± 0.74
41 | YEKMTRFNVGKCHMVHFSLP | -0.376 ± 1.4
42 | YELKQSL | -0.301 ± 0.73
43 | YELKSDNLFVRLF | -0.706 ± 0.46
44 | YFCPLKCVMPENDCPFPMVM | 0.416 ± 0.25
45 | YFCSSGWANVMLLLSVQTNR | 0.173 ± 0.35
46 | YFFVLEFIVCIVMTITSLSC | -0.988 ± 0.48
47 | YFGMSY | -1.38 ± 0.66
48 | YFKLIVLVGLNAREWRAAMV | -0.221 ± 0.4
49 | YFMTHRGLCRCISLSYNFKI | -0.957 ± 0.98
50 | YFQFRDGIFIFYVTF | 0.415 ± 0.64

Row | Substance | amyloid nucleation score
51 | YFRIDAKTWFVSFPVALLPV | -0.557 ± 0.29
52 | YFYDILGCDWKALSGRLIDT | -0.603 ± 0.25
53 | YGEPYV | 0.829 ± 0.66
54 | YGGLGYSLIGCYADLDGVIL | 1.47 ± 0.39
55 | YGINAVFLLIDLDERITDYL | 0.105 ± 0.29
56 | YGKSYVIDGVVWGRQDSWES | -0.748 ± 1.6
57 | YGLMVVVKVS | 6.666 ± 0.043
58 | YGNYGCLGRWNSLHTCSQIC | -0.913 ± 0.67
59 | YHGRRVPRDVTNQRTMAQCD | 3.66 ± 0.087
60 | YHIGTVVIPWLKVNRIYRGI | 4.96 ± 0.081
61 | YHNGDYCCVQFTTGSWVVRW | 0.391 ± 0.28
62 | YHNLVLQSICDCSSLADLGW | 6.66 ± 0.059
63 | YHRGIYLFSRSC | -0.906 ± 0.88
64 | YHTNTGDDPSCPRPSTSYSG | 1.98 ± 0.51
65 | YHVRVKYFPWNGTNVTVLDS | -0.73 ± 0.32
66 | YIFSHDKGMRR | 2.49 ± 0.25
67 | YIHGGVMCKDPAPFSYFASI | -0.114 ± 0.59
68 | YILPEAEHSKGC | 0.803 ± 0.63
69 | YILSISYYFPRGMVDIVMFM | 0.5 ± 0.48
70 | YINLDHCRMSSSTA | 0.85 ± 0.65
71 | YINLVLGFSYVFLLGLANRM | -0.773 ± 0.24
72 | YIPQSPDDSFWEVMFYLFLS | -0.43 ± 1.2
73 | YISDSLYGFDEVGRDWLRVA | -0.025 ± 0.56
74 | YISFHTTSYRFRLYRLL | 0.894 ± 0.17
75 | YIVYFESRN | 0.438 ± 0.16

Row | Substance | amyloid nucleation score
76 | YIYDIGGLTHATMRCTCR | 0.635 ± 0.49
77 | YIYYSNFCPDRLIVFINAMT | inactive
78 | YKKGYWSGDVAFVWWFTYMC | 0.959 ± 0.54
79 | YKLRFNILASMDNRMKLKWL | -0.899 ± 0.81
80 | YKVCRMCAKGCSDSFRPVRA | 0.555 ± 0.48
81 | YKVSKMNRRDTNGNLVNRRV | -0.211 ± 1.2
82 | YKYREGGKWPL | -1.3 ± 2.4
83 | YLCLAECSLSPYNTTLVGGV | -1.6 ± 0.81
84 | YLFAWSWEDGFYTGACRLLA | 0.006 ± 0.29
85 | YLGTFN | inactive
86 | YLICWVIPGSNVGLMVGMTA | 0.093 ± 1.4
87 | YLIMGNVFNVAVVGGIGCVE | 0.345 ± 0.29
88 | YLNACGSSVRTKVRCSRVIL | -0.209 ± 0.91
89 | YLPTVIPVFI | 0.125 ± 0.98
90 | YLRDVRLYCVMRK | -0.129 ± 0.38
91 | YLVAVVIGSIPAPSRMYSVA | 0.904 ± 0.51
92 | YLVFMQEITLTKQLLWQSMR | -0.224 ± 0.39
93 | YLVRVMFWLLGRCEA | inactive
94 | YLYAACVVWLMLLPNME | -0.671 ± 1.2
95 | YLYCSVSVYRFERFRRNHSR | 0.051 ± 0.3
96 | YMASDEVNI | -0.232 ± 0.26
97 | YMDGVPG | 0.042 ± 1.2
98 | YMFWRGLVFKWVV | 0.667 ± 0.56
99 | YMIMQLDACFECLTFQGQY | 5.9 ± 0.087
100 | YMISNMVKVVFSSTDRNVGN | 5.935 ± 0.051

Row | Substance | amyloid nucleation score
101 | YMLWSVPRLWCRVWLPTVAC | 0.585 ± 0.64
102 | YMNLVLTDLAWSIWGG | 3.62 ± 0.1
103 | YMPRSQIGSTSHVNWREMAE | -0.311 ± 0.33
104 | YMVLVDLRTGRIHGSAGEKR | -0.174 ± 0.5
105 | YNCYNF | 0.97 ± 0.69
106 | YNQISLD | -0.38 ± 1.1
107 | YNVSQLVLLNVFTCK | 7.459 ± 0.044
108 | YNVWVWCERGQC | 4.5 ± 0.1
109 | YNYREWFSLIYFCIWDITWS | -1.01 ± 0.41
110 | YPAPPTNCLRQ | -0.449 ± 0.28
111 | YPCCKICDYIKS | -0.018 ± 0.23
112 | YPGRLRCSRVMSEFVLNSAL | -1.27 ± 0.68
113 | YQDFYMLSRLAKLGG | 0.36 ± 0.61
114 | YQQPEDCMFECTVVYSSKSR | -0.062 ± 0.26
115 | YQVYWSVSG | -0.021 ± 0.51
116 | YQYGAWNSANVSSNN | 1.19 ± 0.57
117 | YRAAQGHLASELYGLVTV | 0.36 ± 0.69
118 | YRKRYDWWTVEAVLASVFGS | 1.18 ± 0.57
119 | YRLVP | -0.186 ± 0.46
120 | YRRGKIAWGSTARHETVFIL | 0.336 ± 0.52
121 | YRSGSMLCNYPSRAVTVCWS | 1.16 ± 0.38
122 | YRWSLTLNLL | -0.651 ± 0.47
123 | YRYSSIF | -0.954 ± 1.4
124 | YSAALRHGQRHKWRSGRKIG | 0.674 ± 1.2
125 | YSADMFRADGLWFRGSRWG | 0.308 ± 0.57

Row | Substance | amyloid nucleation score
126 | YSALVFRYGVISKGDLVTRR | 0.123 ± 0.36
127 | YSCIYKWHECNNVNDNMK | 0.149 ± 0.46
128 | YSEYPSLLGRSSGMIDNFKG | 0.597 ± 0.28
129 | YSFIKCGSMCKEYKPCPTKL | -0.11 ± 0.51
130 | YSGNSIFLNLRSSCAYCGGD | 6.35 ± 0.081
131 | YSGRVTLWIVPMLHARH | -0.114 ± 0.42
132 | YSMHKLSVFRRTYSVTISRT | 0.591 ± 0.55
133 | YSPFYYVDI | 1.61 ± 0.42
134 | YSSLLVTLAEAWCIRLSNRR | 0.665 ± 0.84
135 | YSSSRRDCRRPGTMYRPLPQ | -0.547 ± 0.55
136 | YSVGFTCRMVTLSASWYWLW | 0.136 ± 0.32
137 | YSVLNINLQFRSSLLGAFYP | 3.75 ± 0.063
138 | YSVLTFADLYMVSMS | inactive
139 | YSVLVPIPLSCCISDVLYCT | 5.61 ± 0.064
140 | YSVMYMQSFFDKWLSTSAFR | -1.17 ± 1.4
141 | YSWLVYNHNSDPGGSVCWSC | 5.61 ± 0.065
142 | YSYFWVAWF | 0.329 ± 0.4
143 | YSYVRVIFYV | 0.145 ± 1
144 | YTDAIYHPIPRTGMYSWC | -0.194 ± 0.34
145 | YTEQACDSVP | -0.788 ± 0.89
146 | YTLMLCNVASVDSWI | 5.05 ± 0.063
147 | YTNGNIASTVLYLRPGYHLA | 1.06 ± 0.49
148 | YTNLAT | 0.251 ± 0.5
149 | YTRMLLRGAIETGFYPNMLE | -1.2 ± 2.1
150 | YTSGLFGF | -0.531 ± 0.37

Row | Substance | amyloid nucleation score
151 | YTSIGI | -0.144 ± 0.45
152 | YTTHLCLGAVSLYYVSGYTR | 2.44 ± 0.13
153 | YTVMVVI | 1.44 ± 0.4
154 | YTVRGRDYNGAM | -1.3 ± 2.4
155 | YTWGRLGSEIKPARASMHLA | 1.08 ± 0.75
156 | YVCFVQSCFYARQGHMSGEA | 0.165 ± 0.31
157 | YVDDFPRQSAGFIDT | 2 ± 0.57
158 | YVGAMCLTRGKVRRSEERN | 0.553 ± 0.54
159 | YVKISVLGSKIYNIS | 5.38 ± 0.093
160 | YVLFFSPCT | inactive
161 | YVLMPWSFLLHGMRNLTAMS | inactive
162 | YVMDYSD | 0.096 ± 0.61
163 | YVPGTNILLIIGEICQVPTD | 2.18 ± 0.22
164 | YVQTLSNTECNAIANMHERF | 0.641 ± 0.42
165 | YVRIVIAYFKFSKQFSSQLV | 0.089 ± 0.22
166 | YVSLLYLLWLI | -0.326 ± 0.32
167 | YWIFFNT | 3.16 ± 0.13
168 | YWIIKVRNRLVPRFFKYKGS | -0.491 ± 0.39
169 | YWLLLSSENRECVLVTRRHR | -0.585 ± 1.7
170 | YWLSTTIRYVCEVQATPCWI | -1.31 ± 2.7
171 | YWPGLGFMFDNYSI | 0.555 ± 0.71
172 | YWTSIHSLNTSIP | -0.229 ± 0.62
173 | YWWDIRWGEAGSRERRVELG | 0.078 ± 0.53
